The text below walks through data of PMC2843633.

This assay concerns the target human fibrinogen receptor (GPIIb/IIIa), purified (human) (UniProt P05106). In words: ELISA; GPIIb/IIIa coated at 40 nM on Nunc Maxisorb plates; 5′Nuc/SUMO 250 – 1.95 nM in solution, 0.1% Tween 20; detected with polyclonal anti-5′Nuc IgG or anti-SUMO IgG; apparent KD from four experiments.

B1: 5′Nuc/SUMO fusion protein (Glossina morsitans morsitans 5′nucleotidase-related protein, recombinant, refolded) (enzyme)
chain: DDLYPLTIMHTNDFHARFEETNVKGNPCKSGEKCIGGLARVLHTIKKIIKEQEKKNIESLYINAGDNFQGTIWYNIGRWNVTSELMNIQPPDVMVLGNHEFDHGIDGLLPFLNNMDKTEIVVANMDARDEPQVAKKIKPFTIIKKKYRNIGVIGVVVEEVPDLANTGKLKFRNESEAILEAARNLKKEDPSVNIIIVVSHVGFDVDKIIAERTGSEVDIIVGGHSHTVLYTGTPPGPEKPEDNYPYVYNHPSGNKVLVVQAVCHAKYVGNLTVFFDKKGKVVTYEGAPIYMDTKVEQDKDVLEAMKPWRKLIDEKTKLVVGRTNVDLPRDICRSEECALGNLYTDSMIYAFGGKENCKSGSTWTTAPIAFVHAGAMRSSLHQGDILYSDALLLSPFTNMVVAYDLPGAQLKAALEFSAAPKNEDEKRRFLQMSGLKVTYNMSRAANNRIVDLKVRTNVCPYDQYENLDEKKTYRVVSPSFLQGGGDGFKMLRDYAKNIQNQKIDLDALVDYLKKFSPLAPKAEGRITIIH
Take B1: the Kd was determined as 92 nM.
